Source: patent US20150376269A1 (Regeneron, published 2015)
Changes are numbered by the printed parent chain. Numbers in names are those of the source.

T1: serum resistance-associated protein (SRA) from Trypanosoma brucei rhodesiense, recombinant SRA (SEQ ID NO: … (Trypanosoma brucei rhodesiense, UniProt O96637 31-274))
T1 construct: also called SRA protein
T1 sequence: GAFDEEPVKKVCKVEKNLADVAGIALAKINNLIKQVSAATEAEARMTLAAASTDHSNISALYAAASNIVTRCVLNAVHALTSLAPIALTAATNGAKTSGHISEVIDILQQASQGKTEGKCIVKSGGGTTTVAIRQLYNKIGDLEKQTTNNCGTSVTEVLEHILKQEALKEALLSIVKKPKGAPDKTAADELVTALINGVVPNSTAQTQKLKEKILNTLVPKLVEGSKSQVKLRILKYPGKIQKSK

T2: SRA.mmh
T2 construct: also called SRA.mmh (CHO)
T2 antigen: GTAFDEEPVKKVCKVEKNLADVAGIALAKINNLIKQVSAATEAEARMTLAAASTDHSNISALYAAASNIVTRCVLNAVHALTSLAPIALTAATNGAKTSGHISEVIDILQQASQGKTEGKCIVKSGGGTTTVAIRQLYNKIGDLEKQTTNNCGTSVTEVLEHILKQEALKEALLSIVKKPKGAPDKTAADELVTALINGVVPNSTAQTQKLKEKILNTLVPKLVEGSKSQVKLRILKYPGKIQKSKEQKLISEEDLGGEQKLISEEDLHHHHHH

B1: H1H10056P (antibody, V domains shown)
VH: QVQLVESGGGVVQPGRSLRLSCSASGFTFSLYGMHWIRQAPGKGLEWVAVISYDGSNTYYGDSVKGRFTISRDNSKNTLYLQMNSLRTEDTAIYYCAKVYNWNYLFDYWGQGTLVTVSS
VL: EIVLTQSPDTLSLSPGERATLSCRASQNVNNNFLAWYQQKPGQAPRLLIYGASSRATDIPERFSGSGSGTDFTLTISRLEPEDFAVYYCLHYVNSRTFGQGTKVEIK
notes: Fully human antibody with human IgG1 Fc (prefix H1H)
B2: H1H10064P (antibody, V domains shown)
VH: QVQLVQSGAEVKKPGSSVKVSCKASGGSFSSNVFSWVRQAPGQGLEWMGGIIPIFGSANYAQKFQGRVTITTDESTTTAYMELSSLRSEDTAVYYCAIGGTGPSGYNWNYGAFYIWGQGTMVTVSS
VL: DIQMTQSPSSLSASVGDRVTITCRASQGIRNDLGWYQQKPGIAPKRLIYAASSLQSGVPSRFSGSGSGTEFTLTISSLQPEDFATYYCLQHNSYPYTFGQGTKLEIK
notes: as for B1
B3: H1H10031P (antibody, V domains shown)
VH: EVQLVESGGNVVRPGGSLRLSCSGSGFAFENYGMSWVRQGPGKGLEWVSNINWNGGSLNYVDSVKGRFTISRDNAKNSLYLQMNSLRAEDTALYYCARVIVYGMDVWGQGTTVTVSS
VL: B2 VL with D32G, Y36F, I42K, A51T, H91S, Y96W, L104V
notes: as for B1
B4: H2aM10200N (antibody, V domains shown)
VH: QVQLVQSGAEVKKPGSSVKVSCKASGGTFSSYAISWVRQAPGQGLEWMGGIIPFFGTATYAQKFQGRVTITTDESTRTVYMELSSLRYEDTAVYYCARWYSGYGGDFDYWGQGTLVTVSS
VL: B2 VL with D1A, Y36F, I42K, R46L, E70D, T74S, H91D, N92Y, Y96R, L104V
notes: Hybridoma-derived chimeric antibody, human variable domains and mouse constant domains (mouse Fc, prefix H2aM); also called H2M10200N
B5: H1H10058P (antibody, V domains shown)
VH: EVQLVESGGGLVQPGGSLRLSCAASGFTFNDFFMSWVRQAPGKGLEWVANLNQDGSERHYVDSVKGRFTISRDNAKNSLSLQMNSLRVEDTAVYYCAREGGDSWGQGTLVTVSS
VL: DIVMTQSPDSLAVSLGERVTINCKSSQSILYSANNKDYLAWFHQKPGQPPKLLIYWASIRESGVPDRISGSGSGTDFTLTISSLQAEDVAVYYCQQYYLFPPTFGQGTKVEIK
notes: as for B1
B6: H1H10067P (antibody, V domains shown)
VH: QVQLQESGPGLVKPSQTLSLTCIVSGGSISSGDYYWNWIRQHPGKGLEWIGDIYHSGDTYYNPSLKSRVTISLDTSKNQFSLKLSSLTAADTAVYYCARDRIVATGGGMDVWGQGTTVTVSS
VL: DIQMTQSPSTLSASVGDRVTITCRASQSISSWLAWYQRKPGKAPNLLIYRSSSLESGVPSRFSGSGSGTEFTLTISSLQADDFVIYYCQQYNSYPYTFGQGTKLEIK
notes: as for B1
B7: H1H10026P (antibody, V domains shown)
VH: QVQLVESGGGVVQPGRSLRLSCEASGFTFSIYGMHWVRQAPGKGLEWVAVISYDGTNRYYADSVKGRFTISRDNSKNTLYLQMNSLRAEDTAVYYCAKVNIWNFLFDYWGQGTLVTVSS
VL: EIVLTQSPGTLSLSPGERATLSCRASQSVSGNYLAWYQQKPGQAPRLLIYGPSSRATGIPDRFSGSGSGTDFTLTISRLEPEDFAVYYCQQYGTSLTFGGGTKVEIK
notes: as for B1
B8: H1H10045P (antibody, V domains shown)
VH: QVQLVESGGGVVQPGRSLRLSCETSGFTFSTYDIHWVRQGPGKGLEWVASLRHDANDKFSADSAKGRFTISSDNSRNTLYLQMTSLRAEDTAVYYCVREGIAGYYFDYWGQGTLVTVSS
VL: DIQMTQSPSFVSASVGDRVTISCRASQDIHTWLAWYQQKPGKAPNLLIYAASGLHSRAPSRFSGSGSGTDFTLTISSLQPEDFATYYCQKADRFPFTFGPGTKVDIK
notes: as for B1
B9: H2aM10201N (antibody, V domains shown)
VH: QVQLLESGGGVVQPGKSLRLSCVASGSIFSIYGMNWVRQAPGKGLEWVASVSSDGSAKFYADSVKGRFTISRDNSNDTLFLQMTSLRAEDTAVYYCAKTLWNYLFDSWGQGTLVTVSS
VL: ENVLTQSPDTLSLSPGERATLSCRASQSITSNYLAWYQQKPGQTPRLLISFTSRRATGIPDRFSGSGSGTVFTLTISRLEPEDFAVYYCQQYGTSLTFGGGAKVEIR
notes: Chimeric antibody, human variable domains and mouse constant domains (mouse Fc, prefix H2aM); also called H2M10201N
B10: H1H10027P (antibody, V domains shown)
VH: EVQLVESGGALVQPGRSLTLSCAASGFTFDDYTMHWVRQTPGKGLEWVSGILWNSDNLVYADSVKGRFTISRDNAKNSLYLQMNSLRVEDTALYYCTKEIDYLTLGGNAFDVWGQGTMVTVSS
VL: DIQMTQSPSTLSASVGDRITITCRASQNINYWLAWYQQKPGKAPKLLIYKASSLAGGVPSRFSGSGSGTDFTLTINSLQPDDFATYYCQKYNTYSLNFGGGTKVEIK
notes: as for B1

The binders below were run against T1, serum resistance-associated protein … (assay: SPR, mAb captured, 25C, assoc. pH 7.4, dissoc. pH 4.5).
Description: (§1) Equilibrium dissociation constants (KD) values for SRA binding to selected purified anti-SRA monoclonal antibodies were determined using a real-time surface plasmon resonance biosensor assay on a Biacore T200 instrument. […] SRA binding to the captured monoclonal antibodies was monitored for 4 min while the dissociation of mAb bound SRA was monitored for 7 min. Two different assays formats were adopted to characterize kinetics of SRA binding—(i) regular kinetics and (ii) pH4.5 chase. Regular kinetics experiments were performed using pH7.4 buffer as the running buffer and both the association and dissociation was performed in pH7.4. For the chase format, association and dissociation were performed in pH7.4 buffer and pH4.5 buffer respectively.
(§2) Kinetic association (kₐ) and dissociation (kd) rate constants were determined by processing and fitting the data to a 1:1 binding model using Scrubber 2.0c curve fitting software. Only the dissociation rate (kd) was calculated for the pH4.5 chase experiment. Binding dissociation equilibrium constants (KD) and dissociative half-lives (t½) were calculated from the kinetic rate constants as:

Row | Binder | t ½
1 | B1 | 0.117 h
2 | B2 | 0.025 h
3 | B3 | 3.32 h
4 | B4 | 0.0333 h
5 | B5 | 4.05 h
6 | B6 | 0.933 h
7 | B7 | 1.75 h
8 | B8 | ≥ 3.85 h
9 | B9 | 0.0117 h
10 | B10 | 1.4 h

Molecular target: T2, SRA.mmh
Assay: Octet, mAb-2 at 50 ug/mL on captured SRA.mmh after negative control α-PRLR H1H6800P as mAb-1 (row 32 (-))

Row | Binder | Binding of mAb-2 to SRA Pre-complexed with mAb-1
11 | B1 | 1.28
12 | B2 | 1.22
13 | B3 | 1.58
14 | B4 | 1.28
15 | B5 | 1.27
16 | B6 | 1.41
17 | B7 | 1.64
18 | B8 | 1.4
19 | B9 | 1.31
20 | B10 | 1.55

The binders below were run against T1, serum resistance-associated protein … (assay: SPR, mAb captured, 25C, pH 7.4).
Description: as §1, §2

Row | Binder | Kd | kon | t ½
21 | B1 | ≤ 0.134 nM | 372000 M⁻¹ s⁻¹ | ≥ 3.85 h
22 | B2 | 0.546 nM | 1.6e+06 M⁻¹ s⁻¹ | 0.217 h
23 | B3 | ≤ 0.095 nM | 526000 M⁻¹ s⁻¹ | ≥ 3.85 h
24 | B4 | 0.0996 nM | 844000 M⁻¹ s⁻¹ | 2.28 h
25 | B5 | ≤ 0.0786 nM | 636000 M⁻¹ s⁻¹ | ≥ 3.85 h
26 | B6 | ≤ 0.0557 nM | 897000 M⁻¹ s⁻¹ | ≥ 3.85 h
27 | B7 | ≤ 0.0814 nM | 614000 M⁻¹ s⁻¹ | ≥ 3.85 h
28 | B8 | ≤ 0.108 nM | 459000 M⁻¹ s⁻¹ | ≥ 3.85 h
29 | B9 | 0.245 nM | 642000 M⁻¹ s⁻¹ | 1.23 h
30 | B10 | ≤ 0.0376 nM | 1.33e+06 M⁻¹ s⁻¹ | ≥ 3.85 h

Each binder was assayed against T1, serum resistance-associated protein … (assay: SPR, mAb captured, pH 4.5, 25C; competitor biotin-apoL1 peptide).

Row | Binder | 50 nM SRA + 5 uM apoL1 peptide binding (RU) | % Blocking, apoL1 peptide
31 | B1 | -4 RU | 100%
32 | B2 | -11 RU | 100%
33 | B3 | 45 RU | 25%
34 | B4 | -2 RU | 100%
35 | B5 | 57 RU | 4%
36 | B6 | 98 RU | -16%
37 | B7 | 84 RU | 19%
38 | B8 | 52 RU | 36%
39 | B9 | 42 RU | 61%
40 | B10 | 118 RU | -24%

These binders were tested against T1, serum resistance-associated protein … (assay: SPR, 25C, t1/2 pH 7.4 over pH 4.5).
Description: as §1, §2

Row | Binder | t ½ ratio pH 7.4/pH 4.5
41 | B1 | ≥ 31
42 | B2 | 9
43 | B3 | ≥ 1
44 | B4 | 77
45 | B5 | ≥ 1
46 | B6 | ≥ 4
47 | B7 | ≥ 2
48 | B9 | 109
49 | B10 | ≥ 3

These binders were tested against T1, serum resistance-associated protein … (assay: SPR, mAb captured, pH 4.5, 25C; competitor biotin-mutant apoL1 peptide).

Row | Binder | 50 nM SRA + 5 uM mutant apoL1 peptide binding (RU) | % Blocking, Mutant apoL1 peptide
50 | B1 | 67 RU | 7%
51 | B2 | 67 RU | 11%
52 | B3 | 57 RU | 6%
53 | B4 | 150 RU | 5%
54 | B5 | 56 RU | 5%
55 | B6 | 82 RU | 4%
56 | B7 | 106 RU | -2%
57 | B8 | 77 RU | 6%
58 | B9 | 108 RU | 0%
59 | B10 | 92 RU | 4%

Molecular target: T2, SRA.mmh
Assay: Octet, SRA.mmh captured on anti-Penta-His tips, mAb-1 at 50 ug/mL for 5 min, 25 C, pH 7.4

Row | Binder | 50 ug/mL mAb 1 Bound (nm)
60 | B1 | 1.3 nm
61 | B2 | 1.25 nm
62 | B3 | 1.59 nm
63 | B4 | 1.59 nm
64 | B5 | 1.44 nm
65 | B6 | 1.52 nm
66 | B7 | 1.45 nm
67 | B8 | 1.72 nm
68 | B9 | 1.27 nm
69 | B10 | 1.5 nm

What follows are binders tested against T1, serum resistance-associated protein … (assay: SPR, mAb captured, 50 nM SRA, pH 4.5, 25C).

Row | Binder | 50 nM SRA binding (RU)
70 | B1 | 72 RU
71 | B2 | 76 RU
72 | B3 | 60 RU
73 | B4 | 159 RU
74 | B5 | 59 RU
75 | B6 | 85 RU
76 | B7 | 104 RU
77 | B8 | 82 RU
78 | B9 | 109 RU
79 | B10 | 95 RU
